Assay results from patent publication US20240409598A1, “PEPTIDE INHIBITORS OF INTERLEUKIN-23 RECEPTOR” (Janssen Biotech, Inc., priority 2021, published 2024).
*1 amine or outer side, *2 acyl side, *3 side chain or, on linkers, in order; H or OH if unused. Bridges are numbered along the chain shown (N, C = ends). Primed or numbered codes have the meaning given here. [ ]: non-standard residue; d: D form. AEF(G) = 4-(2-guanidinoethoxy)phenylalanine, N=C(N)NCCOc1ccc(C[C@H](N[*:1])C(=O)[*:2])cc1; Trp(7-Me) = Cc1cccc2c(C[C@H](N)C(=O)O)c[nH]c12; 3Pal(5-Me) = Cc1cncc(C[C@H](N)C(=O)O)c1; 2Nal = N[C@@H](Cc1ccc2ccccc2c1)C(=O)O; 3Pal = N[C@@H](Cc1cccnc1)C(=O)O; Pen = CC(C)(S)[C@H](N)C(=O)O; αMeC = C[C@](N)(CS)C(=O)O; AEF′ = not defined here; Abu = CC[C@H](N)C(=O)O; THP = not defined here; Sar = CNCC(=O)O

T1: interleukin-23 receptor (IL-23R) (UniProt Q5VWK5 24-629, limits assumed)
T1 sequence (looked up): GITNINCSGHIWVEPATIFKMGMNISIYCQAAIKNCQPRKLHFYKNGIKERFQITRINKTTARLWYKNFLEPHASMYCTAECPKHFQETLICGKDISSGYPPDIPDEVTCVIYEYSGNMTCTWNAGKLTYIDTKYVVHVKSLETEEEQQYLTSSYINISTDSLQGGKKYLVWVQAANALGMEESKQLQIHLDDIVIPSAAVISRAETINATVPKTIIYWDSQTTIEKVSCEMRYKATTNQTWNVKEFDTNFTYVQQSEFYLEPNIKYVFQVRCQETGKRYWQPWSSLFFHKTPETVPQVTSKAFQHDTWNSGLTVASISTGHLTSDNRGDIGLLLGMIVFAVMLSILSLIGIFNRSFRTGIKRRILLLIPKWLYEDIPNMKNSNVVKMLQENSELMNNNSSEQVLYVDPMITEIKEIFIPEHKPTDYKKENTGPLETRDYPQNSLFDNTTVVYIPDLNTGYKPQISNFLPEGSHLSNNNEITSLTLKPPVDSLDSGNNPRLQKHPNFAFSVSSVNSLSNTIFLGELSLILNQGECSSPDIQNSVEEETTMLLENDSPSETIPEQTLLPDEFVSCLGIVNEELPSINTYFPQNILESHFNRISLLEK

B1: Compound 478 (peptide)
peptide: Ac-[dR][Abu]NTWK(Ac)[αMeC][AEF′][2Nal][THP]ENX[Sar]-NH2
modifications: thioether 2-7; not fully specified (residue 13); printed as MeCO-r-Abu (1)-N-T-W-K(Ac)-aMeC (1)-AEF-2Nal-THP-E-N-3Pya-Sar-CONH2
B2: Compound 477 (peptide)
peptide: Ac-[Pen]NT[Trp(7-Me)]K(Ac)[Pen][AEF(G)][2Nal][THP]EN[3Pal][Sar]-NH2
modifications: disulfide 1-6; reading uncertain; also: printed as MeCO-Pen-N-T-7MeW-K(Ac)-Pen-AEF(G)-2Nal-THP-E-N-3Pya-Sar-CONH2
B3: Compound 345 (peptide)
peptide: Ac-[dR][Pen]NT[Trp(7-Me)]K(Ac)[Pen][AEF′][2Nal][THP]EN[3Pal(5-Me)][Sar]-NH2
modifications: disulfide 2-7; reading uncertain; also: printed as MeCO-r-Pen-N-T-7MeW-K(Ac)-Pen-AEF-2Nal-THP-E-N-5MePyridinAla-Sar-CONH2

Key:
[1] = test system: peripheral blood mononuclear cells (PBMCs); test: PBMC pSTAT3 Assay; format: cell-based; conditions: PBMCs from healthy donors; IL-23 5 ng/ml; 30 minutes stimulation
Protocol: Cryopreserved peripheral blood mononuclear cells (PBMCs) from healthy donors were thawed and washed twice in ImmunoCult-XF T cell expansion medium (XF-TCEM) supplemented with CTL anti-aggregate wash. The cells were counted, resuspended at 2×10^5 cells per mL XF-TCEM supplemented with penicillin/streptomycin and 100 ng/ml […] (BioLegend, 579404), and cultured in tissue culture flasks coated with anti-CD3 (eBioscience, 16-0037-85 or BD Pharmingen, 555329) at 37° C. in 5% CO2. On day 4 of culture, PBMCs were collected, washed twice in RPMI-1640 supplemented with 0.1% BSA (RPMI-BSA), and incubated in RPMI-BSA in upright tissue culture flasks for 4 hours at 37° C. in 5% CO2. Following this ‘starvation,’ a total of 6×10^4 cells in 30 μL RPMI-BSA was transferred into each well of a 384-well plate pre-spotted with peptide or DMSO. The cells were incubated for 30 minutes prior to the addition of IL-23 at a final concentration of 5 ng/ml. The cells were stimulated with cytokine for 30 minutes at 370C in 5% CO2, transferred onto ice for 10 minutes, and lysed. Cell lysates were stored at −80° C. until phosphorylated STAT3 was measured using the phospho-STAT panel kit (Meso Scale Discovery, K15202D).

[2] = target: T1, interleukin-23 receptor (IL-23R); test: cell-based or functional assay
[3] = target: T1, interleukin-23 receptor (IL-23R); test: cell-based or functional assay; remark: listed apart in the source

| Molecule | IC50 [1] | PBMC pSTAT3 IC50 [2] | IC50, IL23R Reporter Assay [3] |
| --- | --- | --- | --- |
| MeCO-r-Abu (1)-N-T-W-K(Ac)-aMeC (1)-AEF-2Nal-THP-E-N-3Pya-Sar-CONH2 [compound 478] | 0.015 nM | – | – |
| MeCO-r-Pen-N-T-7MeW-K(Ac)-Pen-AEF-2Nal-THP-E-N-5MePyridinAla-Sar-CONH2 [compound 345] | 0.0076 nM | – | – |
| B1 | – | 15 pM | – |
| B2 | – | 5.5 pM | 91 nM |
| B3 | – | 7.6 pM | 5 nM |
